Data on 20 molecules can be found in patent publication US20240018502A1.

The target in this assay is plasma purified human complement protein C3 (human) (UniProt P01024). As to the kind of experiment: cell-based or functional assay.
Chain of plasma purified human complement protein C3 (human) (P01024 23-667, chain 1 of 2): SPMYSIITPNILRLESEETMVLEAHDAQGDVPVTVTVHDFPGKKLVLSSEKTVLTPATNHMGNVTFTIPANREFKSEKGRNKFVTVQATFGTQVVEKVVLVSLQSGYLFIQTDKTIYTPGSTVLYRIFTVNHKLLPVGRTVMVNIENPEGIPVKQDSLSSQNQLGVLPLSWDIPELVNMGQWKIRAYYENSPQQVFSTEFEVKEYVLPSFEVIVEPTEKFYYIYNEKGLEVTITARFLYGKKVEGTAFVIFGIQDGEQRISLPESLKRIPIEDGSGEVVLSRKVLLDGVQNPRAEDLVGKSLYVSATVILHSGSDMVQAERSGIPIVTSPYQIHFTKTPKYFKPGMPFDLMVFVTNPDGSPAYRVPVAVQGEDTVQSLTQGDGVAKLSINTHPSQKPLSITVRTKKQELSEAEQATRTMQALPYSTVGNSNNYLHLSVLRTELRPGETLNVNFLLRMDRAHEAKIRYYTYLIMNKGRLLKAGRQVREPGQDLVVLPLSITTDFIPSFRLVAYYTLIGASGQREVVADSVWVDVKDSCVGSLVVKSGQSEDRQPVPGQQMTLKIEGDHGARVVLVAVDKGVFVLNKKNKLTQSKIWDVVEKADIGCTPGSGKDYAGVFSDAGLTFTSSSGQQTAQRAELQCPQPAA
Chain of plasma purified human complement protein C3 (human) (P01024 672-1663, chain 2 of 2): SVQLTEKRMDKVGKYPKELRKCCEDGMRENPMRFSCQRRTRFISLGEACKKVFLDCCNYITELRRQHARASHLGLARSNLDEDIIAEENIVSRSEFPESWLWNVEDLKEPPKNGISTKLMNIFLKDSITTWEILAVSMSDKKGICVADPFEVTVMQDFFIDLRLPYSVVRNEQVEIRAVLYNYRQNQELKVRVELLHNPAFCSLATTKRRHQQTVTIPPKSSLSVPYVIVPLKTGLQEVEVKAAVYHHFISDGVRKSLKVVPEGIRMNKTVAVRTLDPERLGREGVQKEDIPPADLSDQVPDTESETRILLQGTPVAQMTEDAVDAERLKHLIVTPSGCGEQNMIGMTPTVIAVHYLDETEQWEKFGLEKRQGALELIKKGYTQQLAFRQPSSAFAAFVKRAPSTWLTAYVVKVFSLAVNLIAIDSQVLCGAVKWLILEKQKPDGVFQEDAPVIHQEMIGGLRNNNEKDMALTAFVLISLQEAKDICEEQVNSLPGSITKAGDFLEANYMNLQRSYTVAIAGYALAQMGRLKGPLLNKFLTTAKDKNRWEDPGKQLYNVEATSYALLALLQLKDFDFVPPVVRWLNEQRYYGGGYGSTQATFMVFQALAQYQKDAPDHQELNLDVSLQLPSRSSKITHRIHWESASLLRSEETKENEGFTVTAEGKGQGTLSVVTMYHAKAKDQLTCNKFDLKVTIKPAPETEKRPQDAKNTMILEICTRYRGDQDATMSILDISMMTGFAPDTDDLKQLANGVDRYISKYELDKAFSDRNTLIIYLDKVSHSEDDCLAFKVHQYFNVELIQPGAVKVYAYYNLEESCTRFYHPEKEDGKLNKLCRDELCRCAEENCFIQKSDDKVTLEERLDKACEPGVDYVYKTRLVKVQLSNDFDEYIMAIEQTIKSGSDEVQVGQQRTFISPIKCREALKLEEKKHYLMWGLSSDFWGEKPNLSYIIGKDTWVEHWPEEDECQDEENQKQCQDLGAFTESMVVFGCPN

B1: MTSP-1 protease domain F97R/ins97aI/T98P/C122S/Q175M/Q192V/D217I (enzyme)
chain: VVGGTDADEGEWPWQVSLHALGQGHICGASLISPNWLVSAAHCYIDDRGFRYSDPTQWTAFLGLHDQSQRSAPGVQERRLKRIISHPFFNDRIPFDYDIALLELEKPAEYSSMVRPISLPDASHVFPAGKAIWVTGWGHTQYGGTGALILQKGEIRVINQTTCENLLPQMITPRMMCVGFLSGGVDSCVGDSGGPLSSVEADGRIFQAGVVSWGIGCAQRNKPGVYTRLPLFRDWIKENTGV
B1 returned an EC50 hC3 cleavage of 23.6 nM.

B2: MTSP-1 protease domain I41G/F97L/F99L/C122S/G151N/Q192V/D217L (enzyme)
chain: VVGGTDADEGEWPWQVSLHALGQGHGCGASLISPNWLVSAAHCYIDDRGFRYSDPTQWTAFLGLHDQSQRSAPGVQERRLKRIISHPFFNDLTLDYDIALLELEKPAEYSSMVRPISLPDASHVFPAGKAIWVTGWGHTQYGGTNALILQKGEIRVINQTTCENLLPQQITPRMMCVGFLSGGVDSCVGDSGGPLSSVEADGRIFQAGVVSWGLGCAQRNKPGVYTRLPLFRDWIKENTGV
B2 came in with an EC50 hC3 cleavage of 112 nM.

B3: MTSP-1 I41S/F99L/C122S/G151N/Q192V (enzyme)
chain: VVGGTDADEGEWPWQVSLHALGQGHSCGASLISPNWLVSAAHCYIDDRGFRYSDPTQWTAFLGLHDQSQRSAPGVQERRLKRIISHPFFNDFTLDYDIALLELEKPAEYSSMVRPISLPDASHVFPAGKAIWVTGWGHTQYGGTNALILQKGEIRVINQTTCENLLPQQITPRMMCVGFLSGGVDSCVGDSGGPLSSVEADGRIFQAGVVSWGDGCAQRNKPGVYTRLPLFRDWIKENTGV
In turn, B3 returned an EC50 of hC3 cleavage of 34.4 nM.

B4: MTSP-1 protease domain F97E/F99L/C122S/G151A/Q192V (enzyme)
chain: VVGGTDADEGEWPWQVSLHALGQGHICGASLISPNWLVSAAHCYIDDRGFRYSDPTQWTAFLGLHDQSQRSAPGVQERRLKRIISHPFFNDETLDYDIALLELEKPAEYSSMVRPISLPDASHVFPAGKAIWVTGWGHTQYGGTAALILQKGEIRVINQTTCENLLPQQITPRMMCVGFLSGGVDSCVGDSGGPLSSVEADGRIFQAGVVSWGDGCAQRNKPGVYTRLPLFRDWIKENTGV
For the molecule B4, the EC50 hC3 cleavage was 1040 nM.

B5: MTSP-1 protease domain Q38R/I41G/Y60gG/F99M/C122S/G151N/Q192R (enzyme)
chain: VVGGTDADEGEWPWQVSLHALGRGHGCGASLISPNWLVSAAHCYIDDRGFRGSDPTQWTAFLGLHDQSQRSAPGVQERRLKRIISHPFFNDFTMDYDIALLELEKPAEYSSMVRPISLPDASHVFPAGKAIWVTGWGHTQYGGTNALILQKGEIRVINQTTCENLLPQQITPRMMCVGFLSGGVDSCRGDSGGPLSSVEADGRIFQAGVVSWGDGCAQRNKPGVYTRLPLFRDWIKENTGV
For the molecule B5, the EC50 hC3 cleavage worked out at 147 nM.

B6: MTSP-1 I41E/F99L/C122S/G151N/Q192T (enzyme)
chain: VVGGTDADEGEWPWQVSLHALGQGHECGASLISPNWLVSAAHCYIDDRGFRYSDPTQWTAFLGLHDQSQRSAPGVQERRLKRIISHPFFNDFTLDYDIALLELEKPAEYSSMVRPISLPDASHVFPAGKAIWVTGWGHTQYGGTNALILQKGEIRVINQTTCENLLPQQITPRMMCVGFLSGGVDSCTGDSGGPLSSVEADGRIFQAGVVSWGDGCAQRNKPGVYTRLPLFRDWIKENTGV
Molecule B6 gave an EC50 of hC3 cleavage of 124 nM.

B7: MTSP-1 protease domain F97E/F99L/C122S/Q175H/Q192V/D217P (enzyme)
chain: VVGGTDADEGEWPWQVSLHALGQGHICGASLISPNWLVSAAHCYIDDRGFRYSDPTQWTAFLGLHDQSQRSAPGVQERRLKRIISHPFFNDETLDYDIALLELEKPAEYSSMVRPISLPDASHVFPAGKAIWVTGWGHTQYGGTGALILQKGEIRVINQTTCENLLPQHITPRMMCVGFLSGGVDSCVGDSGGPLSSVEADGRIFQAGVVSWGPGCAQRNKPGVYTRLPLFRDWIKENTGV
The molecule B7 registered an EC50 hC3 cleavage of 7770 nM.

B8: MTSP-1 protease domain I41G/F97A/F99L/C122S/G151N/Q175M/Q192S (enzyme)
chain: VVGGTDADEGEWPWQVSLHALGQGHGCGASLISPNWLVSAAHCYIDDRGFRYSDPTQWTAFLGLHDQSQRSAPGVQERRLKRIISHPFFNDATLDYDIALLELEKPAEYSSMVRPISLPDASHVFPAGKAIWVTGWGHTQYGGTNALILQKGEIRVINQTTCENLLPQMITPRMMCVGFLSGGVDSCSGDSGGPLSSVEADGRIFQAGVVSWGDGCAQRNKPGVYTRLPLFRDWIKENTGV
In turn, B8 had an EC50 hC3 cleavage of 73.1 nM.

B9: MTSP-1 protease domain I41D/F97T/F99L/C122S/G151N/Q192T (enzyme)
chain: VVGGTDADEGEWPWQVSLHALGQGHDCGASLISPNWLVSAAHCYIDDRGFRYSDPTQWTAFLGLHDQSQRSAPGVQERRLKRIISHPFFNDTTLDYDIALLELEKPAEYSSMVRPISLPDASHVFPAGKAIWVTGWGHTQYGGTNALILQKGEIRVINQTTCENLLPQQITPRMMCVGFLSGGVDSCTGDSGGPLSSVEADGRIFQAGVVSWGDGCAQRNKPGVYTRLPLFRDWIKENTGV
For the molecule B9, the EC50 hC3 cleavage amounted to 84.3 nM.

B10: MTSP-1 protease domain F97L/F99L/C122S/Q175K/Q192V/D217M (enzyme)
chain: VVGGTDADEGEWPWQVSLHALGQGHICGASLISPNWLVSAAHCYIDDRGFRYSDPTQWTAFLGLHDQSQRSAPGVQERRLKRIISHPFFNDLTLDYDIALLELEKPAEYSSMVRPISLPDASHVFPAGKAIWVTGWGHTQYGGTGALILQKGEIRVINQTTCENLLPQKITPRMMCVGFLSGGVDSCVGDSGGPLSSVEADGRIFQAGVVSWGMGCAQRNKPGVYTRLPLFRDWIKENTGV
Regarding B10, the EC50 hC3 cleavage came to 463 nM.

B11: MTSP-1 protease domain I41D/F99L/C122S/Q175S/Q192T (enzyme)
chain: VVGGTDADEGEWPWQVSLHALGQGHDCGASLISPNWLVSAAHCYIDDRGFRYSDPTQWTAFLGLHDQSQRSAPGVQERRLKRIISHPFFNDFTLDYDIALLELEKPAEYSSMVRPISLPDASHVFPAGKAIWVTGWGHTQYGGTGALILQKGEIRVINQTTCENLLPQSITPRMMCVGFLSGGVDSCTGDSGGPLSSVEADGRIFQAGVVSWGDGCAQRNKPGVYTRLPLFRDWIKENTGV
The molecule B11 returned an EC50 hC3 cleavage of 27.4 nM.

B12: MTSP-1 protease domain I41D/F99L/C122S/Q192T (enzyme)
chain: VVGGTDADEGEWPWQVSLHALGQGHDCGASLISPNWLVSAAHCYIDDRGFRYSDPTQWTAFLGLHDQSQRSAPGVQERRLKRIISHPFFNDFTLDYDIALLELEKPAEYSSMVRPISLPDASHVFPAGKAIWVTGWGHTQYGGTGALILQKGEIRVINQTTCENLLPQQITPRMMCVGFLSGGVDSCTGDSGGPLSSVEADGRIFQAGVVSWGDGCAQRNKPGVYTRLPLFRDWIKENTGV
In turn, B12 registered an EC50 hC3 cleavage of 59.4 nM.

B13: MTSP-1 protease domain Q38K/I41G/Y60gG/F99L/C122S/G151N/Q192H (enzyme)
chain: VVGGTDADEGEWPWQVSLHALGKGHGCGASLISPNWLVSAAHCYIDDRGFRGSDPTQWTAFLGLHDQSQRSAPGVQERRLKRIISHPFFNDFTLDYDIALLELEKPAEYSSMVRPISLPDASHVFPAGKAIWVTGWGHTQYGGTNALILQKGEIRVINQTTCENLLPQQITPRMMCVGFLSGGVDSCHGDSGGPLSSVEADGRIFQAGVVSWGDGCAQRNKPGVYTRLPLFRDWIKENTGV
In turn, B13 showed an EC50 hC3 cleavage of 17.9 nM.

B14: MTSP-1 protease domain I41D/F99L/C122S/G151N/Q192T/D217A (enzyme)
chain: VVGGTDADEGEWPWQVSLHALGQGHDCGASLISPNWLVSAAHCYIDDRGFRYSDPTQWTAFLGLHDQSQRSAPGVQERRLKRIISHPFFNDFTLDYDIALLELEKPAEYSSMVRPISLPDASHVFPAGKAIWVTGWGHTQYGGTNALILQKGEIRVINQTTCENLLPQQITPRMMCVGFLSGGVDSCTGDSGGPLSSVEADGRIFQAGVVSWGAGCAQRNKPGVYTRLPLFRDWIKENTGV
As for B14, the EC50 hC3 cleavage was determined as 45.1 nM.

B15: MTSP-1 protease domain Q38L/I41R/Y60gF/F99L/C122S/G151N/Q192A (enzyme)
chain: VVGGTDADEGEWPWQVSLHALGLGHRCGASLISPNWLVSAAHCYIDDRGFRFSDPTQWTAFLGLHDQSQRSAPGVQERRLKRIISHPFFNDFTLDYDIALLELEKPAEYSSMVRPISLPDASHVFPAGKAIWVTGWGHTQYGGTNALILQKGEIRVINQTTCENLLPQQITPRMMCVGFLSGGVDSCAGDSGGPLSSVEADGRIFQAGVVSWGDGCAQRNKPGVYTRLPLFRDWIKENTGV
Regarding B15, the EC50 hC3 cleavage was determined as 151 nM.

B16: MTSP-1 protease domain I41E/F97S/F99L/C122S/Q175L/Q192V/D217A (enzyme)
chain: VVGGTDADEGEWPWQVSLHALGQGHECGASLISPNWLVSAAHCYIDDRGFRYSDPTQWTAFLGLHDQSQRSAPGVQERRLKRIISHPFFNDSTLDYDIALLELEKPAEYSSMVRPISLPDASHVFPAGKAIWVTGWGHTQYGGTGALILQKGEIRVINQTTCENLLPQLITPRMMCVGFLSGGVDSCVGDSGGPLSSVEADGRIFQAGVVSWGAGCAQRNKPGVYTRLPLFRDWIKENTGV
On to B16, for which the EC50 hC3 cleavage turned out to be 89.9 nM.

B17: MTSP-1 protease domain I41G/F97V/F99L/C122S/G151N/Q192T/D217V (enzyme)
chain: VVGGTDADEGEWPWQVSLHALGQGHGCGASLISPNWLVSAAHCYIDDRGFRYSDPTQWTAFLGLHDQSQRSAPGVQERRLKRIISHPFFNDVTLDYDIALLELEKPAEYSSMVRPISLPDASHVFPAGKAIWVTGWGHTQYGGTNALILQKGEIRVINQTTCENLLPQQITPRMMCVGFLSGGVDSCTGDSGGPLSSVEADGRIFQAGVVSWGVGCAQRNKPGVYTRLPLFRDWIKENTGV
B17 showed an EC50 hC3 cleavage of 30.5 nM.

B18: MTSP-1 protease domain I41D/F99L/C122S/G151N/Q192T (enzyme)
chain: VVGGTDADEGEWPWQVSLHALGQGHDCGASLISPNWLVSAAHCYIDDRGFRYSDPTQWTAFLGLHDQSQRSAPGVQERRLKRIISHPFFNDFTLDYDIALLELEKPAEYSSMVRPISLPDASHVFPAGKAIWVTGWGHTQYGGTNALILQKGEIRVINQTTCENLLPQQITPRMMCVGFLSGGVDSCTGDSGGPLSSVEADGRIFQAGVVSWGDGCAQRNKPGVYTRLPLFRDWIKENTGV
For B18, the EC50 hC3 cleavage was 47 nM.

B19: MTSP-1 protease domain I41D/F99L/C122S/G151N/Q175S/Q192T (enzyme)
chain: VVGGTDADEGEWPWQVSLHALGQGHDCGASLISPNWLVSAAHCYIDDRGFRYSDPTQWTAFLGLHDQSQRSAPGVQERRLKRIISHPFFNDFTLDYDIALLELEKPAEYSSMVRPISLPDASHVFPAGKAIWVTGWGHTQYGGTNALILQKGEIRVINQTTCENLLPQSITPRMMCVGFLSGGVDSCTGDSGGPLSSVEADGRIFQAGVVSWGDGCAQRNKPGVYTRLPLFRDWIKENTGV
B19 returned an EC50 hC3 cleavage of 28.6 nM.

B20: MTSP-1 protease domain I41D/F97R/F99L/C122S/Q175L/Q192T/D217I (enzyme)
chain: VVGGTDADEGEWPWQVSLHALGQGHDCGASLISPNWLVSAAHCYIDDRGFRYSDPTQWTAFLGLHDQSQRSAPGVQERRLKRIISHPFFNDRTLDYDIALLELEKPAEYSSMVRPISLPDASHVFPAGKAIWVTGWGHTQYGGTGALILQKGEIRVINQTTCENLLPQLITPRMMCVGFLSGGVDSCTGDSGGPLSSVEADGRIFQAGVVSWGIGCAQRNKPGVYTRLPLFRDWIKENTGV
Molecule B20 came in with an EC50 hC3 cleavage of 5.72 nM.
